Test results taken from the Human Domainome abundance scans (Beltran et al. 2025).
± gives the uncertainty stated by the source.

B1: Tumor protein 63, residues 545 to 610; numbered along this chain, Q9H3D4 (parent)
chain: TDCSIVSFLARLGCSSCLDYFTTQGLTTIYQIEHYSMDDLASLKIPEQFRHAIWKGILDHRQLHEF

Variants of: B1
Experiment: abundance fitness (aPCA) (normalised: wild type 0, dead -1); higher = more abundant; growth selection in yeast, the domain comes from the species named
Settings: Homo sapiens

Variant | abundance fitness
TDCSIVSFLARLGCSSCLDYFTTQGLTTIYQIEHYSMDDLASLKIPEQFRHARWKGILDHRQLHEF | -0.945 ± 0.079
TDCSIVSFLARLGCSSCLDYFTTQGLTTIYQIEHYSMDDLASLKIPEQFRHAEWKGILDHRQLHEF | -0.893 ± 0.063
TDCSIVSFLARLGCSSCLDYFTTQGLTTIYQIEHYSMDDLASLKIPEQFRHANWKGILDHRQLHEF | -0.783 ± 0.1
TDCSIVSFLARLGCSSCLDYFTTQGLTTIYQIEHYSMDDLASLKIPEQFRHALWKGILDHRQLHEF | -0.117 ± 0.025
TDCSIVSFLARLGCSSCLDYFTTQGLTTIYQIEHYSMDDLASLKIPEQFRHAGWKGILDHRQLHEF | -0.979 ± 0.055
TDCSIVSFLARLGCSSCLDYFTTQGLTTIYQIEHYSMDDLASLKIPEQFRHAYWKGILDHRQLHEF | -0.821 ± 0.089
TDCSIVSFLARLGCSSCLDYFTTQGLTTIYQIEHYSMDDLASLKIPEQFRHASWKGILDHRQLHEF | -0.918 ± 0.057
TDCSIVSFLARLGCSSCLDYFTTQGLTTIYQIEHYSMDDLASLKIPEQFRHAWWKGILDHRQLHEF | -0.62 ± 0.081
TDCSIVSFLARLGCSSCLDYFTTQGLTTIYQIEHYSMDDLASLKIPEQFRHATWKGILDHRQLHEF | -0.787 ± 0.064
TDCSIVSFLARLGCSSCLDYFTTQGLTTIYQIEHYSMDDLASLKIPEQFRHAQWKGILDHRQLHEF | -0.99 ± 0.14
TDCSIVSFLARLGCSSCLDYFTTQGLTTIYQIEHYSMDDLASLKIPEQFRHACWKGILDHRQLHEF | -0.528 ± 0.024
TDCSIVSFLARLGCSSCLDYFTTQGLTTIYQIEHYSMDDLASLKIPEQFRHADWKGILDHRQLHEF | -0.907 ± 0.14
TDCSIVSFLARLGCSSCLDYFTTQGLTTIYQIEHYSMDDLASLKIPEQFRHAFWKGILDHRQLHEF | -0.921 ± 0.089
TDCSIVSFLARLGCSSCLDYFTTQGLTTIYQIEHYSMDDLASLKIPEQFRHAHWKGILDHRQLHEF | -0.887 ± 0.071
TDCSIVSFLARLGCSSCLDYFTTQGLTTIYQIEHYSMDDLASLKIPEQFRHAMWKGILDHRQLHEF | -0.403 ± 0.046
TDCSIVSFLARLGCSSCLDYFTTQGLTTIYQIEHYSMDDLASLKIPEQFRHAPWKGILDHRQLHEF | -1.07 ± 0.12
TDCSIVSFLARLGCSSCLDYFTTQGLTTIYQIEHYSMDDLASLKIPEQFRHAKWKGILDHRQLHEF | -0.25 ± 0.13
TDCSIVSFLARLGCSSCLDYFTTQGLTTIYQIEHYSMDDLASLKIPEQFRHAIIKGILDHRQLHEF | -0.028 ± 0.14
TDCSIVSFLARLGCSSCLDYFTTQGLTTIYQIEHYSMDDLASLKIPEQFRHAINKGILDHRQLHEF | -0.03 ± 0.12
TDCSIVSFLARLGCSSCLDYFTTQGLTTIYQIEHYSMDDLASLKIPEQFRHAIVKGILDHRQLHEF | -0.078 ± 0.19
TDCSIVSFLARLGCSSCLDYFTTQGLTTIYQIEHYSMDDLASLKIPEQFRHAITKGILDHRQLHEF | -0.102 ± 0.26

Variant | abundance fitness
TDCSIVSFLARLGCSSCLDYFTTQGLTTIYQIEHYSMDDLASLKIPEQFRHAIRKGILDHRQLHEF | -0.133 ± 0.068
TDCSIVSFLARLGCSSCLDYFTTQGLTTIYQIEHYSMDDLASLKIPEQFRHAIHKGILDHRQLHEF | -0.301 ± 0.23
TDCSIVSFLARLGCSSCLDYFTTQGLTTIYQIEHYSMDDLASLKIPEQFRHAISKGILDHRQLHEF | -0.055 ± 0.097
TDCSIVSFLARLGCSSCLDYFTTQGLTTIYQIEHYSMDDLASLKIPEQFRHAIAKGILDHRQLHEF | -0.065 ± 0.086
TDCSIVSFLARLGCSSCLDYFTTQGLTTIYQIEHYSMDDLASLKIPEQFRHAICKGILDHRQLHEF | -0.363 ± 0.16
TDCSIVSFLARLGCSSCLDYFTTQGLTTIYQIEHYSMDDLASLKIPEQFRHAILKGILDHRQLHEF | 0.031 ± 0.067
TDCSIVSFLARLGCSSCLDYFTTQGLTTIYQIEHYSMDDLASLKIPEQFRHAIGKGILDHRQLHEF | -0.248 ± 0.086
TDCSIVSFLARLGCSSCLDYFTTQGLTTIYQIEHYSMDDLASLKIPEQFRHAIWQGILDHRQLHEF | -0.038 ± 0.071
TDCSIVSFLARLGCSSCLDYFTTQGLTTIYQIEHYSMDDLASLKIPEQFRHAIWFGILDHRQLHEF | -0.212 ± 0.049
TDCSIVSFLARLGCSSCLDYFTTQGLTTIYQIEHYSMDDLASLKIPEQFRHAIWDGILDHRQLHEF | -0.072 ± 0.034
TDCSIVSFLARLGCSSCLDYFTTQGLTTIYQIEHYSMDDLASLKIPEQFRHAIWSGILDHRQLHEF | -0.057 ± 0.026
TDCSIVSFLARLGCSSCLDYFTTQGLTTIYQIEHYSMDDLASLKIPEQFRHAIWRGILDHRQLHEF | -0.059 ± 0.02
TDCSIVSFLARLGCSSCLDYFTTQGLTTIYQIEHYSMDDLASLKIPEQFRHAIWGGILDHRQLHEF | -0.057 ± 0.022
TDCSIVSFLARLGCSSCLDYFTTQGLTTIYQIEHYSMDDLASLKIPEQFRHAIWPGILDHRQLHEF | -0.792 ± 0.088
TDCSIVSFLARLGCSSCLDYFTTQGLTTIYQIEHYSMDDLASLKIPEQFRHAIWNGILDHRQLHEF | -0.038 ± 0.029
TDCSIVSFLARLGCSSCLDYFTTQGLTTIYQIEHYSMDDLASLKIPEQFRHAIWHGILDHRQLHEF | -0.106 ± 0.082
TDCSIVSFLARLGCSSCLDYFTTQGLTTIYQIEHYSMDDLASLKIPEQFRHAIWWGILDHRQLHEF | -0.192 ± 0.032
TDCSIVSFLARLGCSSCLDYFTTQGLTTIYQIEHYSMDDLASLKIPEQFRHAIWTGILDHRQLHEF | -0.087 ± 0.045
TDCSIVSFLARLGCSSCLDYFTTQGLTTIYQIEHYSMDDLASLKIPEQFRHAIWEGILDHRQLHEF | -0.018 ± 0.046
TDCSIVSFLARLGCSSCLDYFTTQGLTTIYQIEHYSMDDLASLKIPEQFRHAIWVGILDHRQLHEF | -0.071 ± 0.032
TDCSIVSFLARLGCSSCLDYFTTQGLTTIYQIEHYSMDDLASLKIPEQFRHAIWCGILDHRQLHEF | -0.041 ± 0.035

Variant | abundance fitness
TDCSIVSFLARLGCSSCLDYFTTQGLTTIYQIEHYSMDDLASLKIPEQFRHAIWAGILDHRQLHEF | -0.074 ± 0.027
TDCSIVSFLARLGCSSCLDYFTTQGLTTIYQIEHYSMDDLASLKIPEQFRHAIWMGILDHRQLHEF | -0.048 ± 0.035
TDCSIVSFLARLGCSSCLDYFTTQGLTTIYQIEHYSMDDLASLKIPEQFRHAIWLGILDHRQLHEF | -0.06 ± 0.025
TDCSIVSFLARLGCSSCLDYFTTQGLTTIYQIEHYSMDDLASLKIPEQFRHAIWKGGLDHRQLHEF | -0.781 ± 0.034
TDCSIVSFLARLGCSSCLDYFTTQGLTTIYQIEHYSMDDLASLKIPEQFRHAIWKGKLDHRQLHEF | -0.51 ± 0.043
TDCSIVSFLARLGCSSCLDYFTTQGLTTIYQIEHYSMDDLASLKIPEQFRHAIWKGCLDHRQLHEF | -0.107 ± 0.035
TDCSIVSFLARLGCSSCLDYFTTQGLTTIYQIEHYSMDDLASLKIPEQFRHAIWKGHLDHRQLHEF | -0.899 ± 0.057
TDCSIVSFLARLGCSSCLDYFTTQGLTTIYQIEHYSMDDLASLKIPEQFRHAIWKGLLDHRQLHEF | -0.025 ± 0.03
TDCSIVSFLARLGCSSCLDYFTTQGLTTIYQIEHYSMDDLASLKIPEQFRHAIWKGDLDHRQLHEF | -0.962 ± 0.089
TDCSIVSFLARLGCSSCLDYFTTQGLTTIYQIEHYSMDDLASLKIPEQFRHAIWKGMLDHRQLHEF | -0.105 ± 0.03
TDCSIVSFLARLGCSSCLDYFTTQGLTTIYQIEHYSMDDLASLKIPEQFRHAIWKGELDHRQLHEF | -0.887 ± 0.11
TDCSIVSFLARLGCSSCLDYFTTQGLTTIYQIEHYSMDDLASLKIPEQFRHAIWKGALDHRQLHEF | -0.369 ± 0.03
TDCSIVSFLARLGCSSCLDYFTTQGLTTIYQIEHYSMDDLASLKIPEQFRHAIWKGFLDHRQLHEF | -0.203 ± 0.04
TDCSIVSFLARLGCSSCLDYFTTQGLTTIYQIEHYSMDDLASLKIPEQFRHAIWKCILDHRQLHEF | -0.472 ± 0.047
TDCSIVSFLARLGCSSCLDYFTTQGLTTIYQIEHYSMDDLASLKIPEQFRHAIWKFILDHRQLHEF | -0.649 ± 0.061
TDCSIVSFLARLGCSSCLDYFTTQGLTTIYQIEHYSMDDLASLKIPEQFRHAIWKLILDHRQLHEF | -0.77 ± 0.051
TDCSIVSFLARLGCSSCLDYFTTQGLTTIYQIEHYSMDDLASLKIPEQFRHAIWKWILDHRQLHEF | -0.811 ± 0.063
TDCSIVSFLARLGCSSCLDYFTTQGLTTIYQIEHYSMDDLASLKIPEQFRHAIWKEILDHRQLHEF | -0.239 ± 0.04
TDCSIVSFLARLGCSSCLDYFTTQGLTTIYQIEHYSMDDLASLKIPEQFRHAIWKYILDHRQLHEF | -0.505 ± 0.036
TDCSIVSFLARLGCSSCLDYFTTQGLTTIYQIEHYSMDDLASLKIPEQFRHAIWKIILDHRQLHEF | -0.831 ± 0.12
TDCSIVSFLARLGCSSCLDYFTTQGLTTIYQIEHYSMDDLASLKIPEQFRHAIWKSILDHRQLHEF | -0.142 ± 0.022

Variant | abundance fitness
TDCSIVSFLARLGCSSCLDYFTTQGLTTIYQIEHYSMDDLASLKIPEQFRHAIWKNILDHRQLHEF | -0.361 ± 0.035
TDCSIVSFLARLGCSSCLDYFTTQGLTTIYQIEHYSMDDLASLKIPEQFRHAIWKTILDHRQLHEF | -0.541 ± 0.042
TDCSIVSFLARLGCSSCLDYFTTQGLTTIYQIEHYSMDDLASLKIPEQFRHAIWKHILDHRQLHEF | -0.363 ± 0.061
TDCSIVSFLARLGCSSCLDYFTTQGLTTIYQIEHYSMDDLASLKIPEQFRHAIWKMILDHRQLHEF | -0.546 ± 0.046
TDCSIVSFLARLGCSSCLDYFTTQGLTTIYQIEHYSMDDLASLKIPEQFRHAIWKVILDHRQLHEF | -0.676 ± 0.041
TDCSIVSFLARLGCSSCLDYFTTQGLTTIYQIEHYSMDDLASLKIPEQFRHAIWKDILDHRQLHEF | -0.446 ± 0.038
TDCSIVSFLARLGCSSCLDYFTTQGLTTIYQIEHYSMDDLASLKIPEQFRHAIWKKILDHRQLHEF | -0.447 ± 0.075
TDCSIVSFLARLGCSSCLDYFTTQGLTTIYQIEHYSMDDLASLKIPEQFRHAIWKQILDHRQLHEF | -0.307 ± 0.043
TDCSIVSFLARLGCSSCLDYFTTQGLTTIYQIEHYSMDDLASLKIPEQFRHAIWKAILDHRQLHEF | -0.075 ± 0.03
TDCSIVSFLARLGCSSCLDYFTTQGLTTIYQIEHYSMDDLASLKIPEQFRHAIWKRILDHRQLHEF | -0.452 ± 0.02
TDCSIVSFLARLGCSSCLDYFTTQGLTTIYQIEHYSMDDLASLKIPEQFRHVIWKGILDHRQLHEF | -0.013 ± 0.023
TDCSIVSFLARLGCSSCLDYFTTQGLTTIYQIEHYSMDDLASLKIPEQFRHMIWKGILDHRQLHEF | -0.101 ± 0.051
TDCSIVSFLARLGCSSCLDYFTTQGLTTIYQIEHYSMDDLASLKIPEQFRHTIWKGILDHRQLHEF | -0.037 ± 0.033
TDCSIVSFLARLGCSSCLDYFTTQGLTTIYQIEHYSMDDLASLKIPEQFRHPIWKGILDHRQLHEF | -0.043 ± 0.031
TDCSIVSFLARLGCSSCLDYFTTQGLTTIYQIEHYSMDDLASLKIPEQFRHWIWKGILDHRQLHEF | -0.076 ± 0.055
TDCSIVSFLARLGCSSCLDYFTTQGLTTIYQIEHYSMDDLASLKIPEQFRHLIWKGILDHRQLHEF | -0.024 ± 0.023
TDCSIVSFLARLGCSSCLDYFTTQGLTTIYQIEHYSMDDLASLKIPEQFRHNIWKGILDHRQLHEF | -0.092 ± 0.036
TDCSIVSFLARLGCSSCLDYFTTQGLTTIYQIEHYSMDDLASLKIPEQFRHYIWKGILDHRQLHEF | -0.116 ± 0.043
TDCSIVSFLARLGCSSCLDYFTTQGLTTIYQIEHYSMDDLASLKIPEQFRHSIWKGILDHRQLHEF | -0.016 ± 0.027
